# Measured values as given in patent US20240210401A1, “METHOD OF USING PACAP AND VIP PEPTIDES FOR DETECTING SHED OR CIRCULATING TUMOR CELLS IN BIOLOGICAL FLUIDS” (Thomas Jefferson University, priority 2013, published 2024).
# Target: T1, VPAC1 receptors expressed on the cell membrane of prostate cancer cells (Homo sapiens, UniProt P32241)
# T1 construct: VPAC1 receptors expressed on the cell membrane of prostate cancer cells; endogenous in cells; host or cells: prostate cancer cells cytospun from patients' urine
# T1 sequence (P32241 31-457): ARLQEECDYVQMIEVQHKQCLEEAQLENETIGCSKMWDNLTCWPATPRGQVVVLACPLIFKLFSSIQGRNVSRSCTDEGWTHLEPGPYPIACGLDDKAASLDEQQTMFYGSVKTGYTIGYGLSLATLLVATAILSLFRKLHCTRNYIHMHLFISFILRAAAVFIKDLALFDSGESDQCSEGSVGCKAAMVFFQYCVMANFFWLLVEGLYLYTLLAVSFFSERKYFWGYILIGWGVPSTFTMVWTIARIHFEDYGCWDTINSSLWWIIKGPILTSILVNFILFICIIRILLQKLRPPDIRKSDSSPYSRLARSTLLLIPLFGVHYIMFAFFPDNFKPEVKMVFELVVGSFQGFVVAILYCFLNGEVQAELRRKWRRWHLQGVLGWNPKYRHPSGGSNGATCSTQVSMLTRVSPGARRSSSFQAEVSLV
# Assay: Confocal imaging of cells from urine samples of prostate cancer patients
# Type: cell-based
# Excerpt: The PACAP peptide, […]γAba-Lys (R) (SEQ ID NO: 7), was synthesized on a Wang resin using an ABI 341A peptide synthesizer (Applied Biosystems, Foster City, CA). The 27-amino acid long PACAP sequence was then assembled by standard Fmoc chemistry and coupled with a free sulfhydryl group attached to the C-terminus. This C-terminal sulfhydryl group was then reacted with a maleimide functionalized NIR dye to yield TP4303.
# Urine samples from two patients, one with early phase prostate cancer and the other with advanced prostate cancer, were cytospinned, and cells were collected on glass slides. The cells were incubated with TP4303, washed with phosphate-buffered saline (PBS) and the slide was dried. The cells were treated with DAPI (4′,6-diamidino-2-phenylindole, a fluorescent stain that binds strongly to A-T rich regions in cellular DNA), a cover slip was placed on the sample and confocal microscopic analysis was performed (excitation, […]; emission, […]).
substance,measurement,setting,value
"His-Ser-Asp-Gly-Ile-Phe-Thr-Asp-Ser-Tyr-Ser-Arg-Tyr-Arg-Lys-Gln-Met-Ala-Val-Lys-Lys-Tyr-Leu-Ala-Ala-Val-Leu-γAba-Lys (R) (SEQ ID NO: 7) (HSDGIFTDSYSRYRKQMAVKKYLAAVLEK; maleimide NIR dye conjugated via C-terminal sulfhydryl; MOD_RES 28 4Abu) [TP4303, PACAP peptide with C-terminal sulfhydryl group reacted with a maleimide functionalized NIR dye]",interaction with epithelial cells,"epithelial cells in the urine samples, identified by DAPI, not expressing VPAC1",did not interact
same,interaction with sperm,"sperm in the urine sample, identified by DAPI, not expressing VPAC1",did not interact
same,binding to VPAC1 receptors on prostate cancer cells,"urine of two patients (early phase and advanced prostate cancer), confocal microscopy",bound
